According to EP4703384A1:
Changes are numbered by the printed parent chain.

B1: mu-131 (antibody, V domains shown)
VH: EVQLQQSGPELVKPGASVKMSCKASGYTFTNYVMHWVKQKPGQGLEWIGYFNPYNDGTNYNEKFKGKATLTSDKSSNTAYMELSSLTSEDSAVYYCARGGVRRYFDVWGAGTTVTVSS
VL: DIQMTQSPSSLSASLGERVSLTCRASQDIGSNLNWLQLGPDGTIKRLIYATFSLDSGVPKRFSGSRSGSDYSLTISSLESEDFVDYYCQQYANFPPTFGGGTKLEIK
B2: mu-169 (antibody, V domains shown)
VH: EVKLVESGGGLVKPGASLKLSCAASGFTFSNYGMSWVRQTSDKRLEWVASISSGGGRIYYPDNVKGRFTISRENAKNTLYLQMSSLKSEDTALYYCTRHAMDNWGQGTSVIVSS
VL: QIVLTQSPAIMSASPGEKVTMTCSASSSVSNMYWYQQKSGTSPKRWIYDTSKLASGVPARFSGSGSGTSYSLTISSMEAEDASTYYCQQWSSNPLTFGAGTTLELK
B3: mu-89 (antibody, V domains shown)
VH: EVQLVESGGDLVKPGGSLKLSCAASGFTFSSYGMSWVRQTPDKRLEWVATISSGGSYTYYPDSVKGRFTFSRDNAKNTLYLQMSSLKSEDTAMYYCVRQALRYHMDSWGQGTSVTVSS
VL: DIVMTQSQKFMSTSVGDRVSVTCKASQNVGTNVAWYQQKPGQSPKALIYSASYRYSGVPDRFTGSGSGTDFTLTISNVQSEDLADFFCQQYYSYPWTFGGGTKLEIK
B4: mu-105 (antibody, V domains shown)
VH: EVQLQQSGPELVKPGASVKMSCKASGYTFTDYYMNWVKQSHGKSLEWIGYIYPNNGGTGYNQRFKGKATLTADKSSSTAYMELRSLTSEDSAVYYCARWGGTRLGYYAMDYWGQGTSVTVSS
VL: B3 VL with A34V, A46L, S50W, Y53T, Y55H, S56T, F86Y, Y92S, S93R, W96Y
B5: mu-128 (antibody, V domains shown)
VH: DVQLVESGGGLVQPGGSRKVSCAASGFTFSSFGMHWVRQAPEKGLEWVAYISRGSSTIYYADTVKGRFTISRDNPKNTLFLQMTSLRSEDTAMYYCARSGYGSSSYYFDYWGQGTTLTVSS
VL: ENVLTQSPAIMSASPREKVTMTCRASSSIRSSYLHWYQQKSGASPKLWIYSTSNLASGVPARFSGSGSGTSYSLTISSVEAEDAATYYCQQFSGYPLTFGGGTKLEIK

Molecular target: CHO-K1-hGPRC5D^hi cells, CHO-K1-cynoGPRC5D cells, and/or CHO-K1-murineGPRC5D cells
Assay: cell ELISA (OD450), subclone supernatant on fixed transfected CHO-K1 cells against CHO-K1

| Binder | fold difference in absorbance as compared to the control cell CHO-K1 [fold] |
| --- | --- |
| B1 | > 2 |
| B2 | > 2 |
| B3 | > 2 |
| B4 | > 2 |
| B5 | > 2 |

Molecular target: human GPRC5D protein (human) (UniProt Q9NZD1)
Sequence (Q9NZD1 whole entry): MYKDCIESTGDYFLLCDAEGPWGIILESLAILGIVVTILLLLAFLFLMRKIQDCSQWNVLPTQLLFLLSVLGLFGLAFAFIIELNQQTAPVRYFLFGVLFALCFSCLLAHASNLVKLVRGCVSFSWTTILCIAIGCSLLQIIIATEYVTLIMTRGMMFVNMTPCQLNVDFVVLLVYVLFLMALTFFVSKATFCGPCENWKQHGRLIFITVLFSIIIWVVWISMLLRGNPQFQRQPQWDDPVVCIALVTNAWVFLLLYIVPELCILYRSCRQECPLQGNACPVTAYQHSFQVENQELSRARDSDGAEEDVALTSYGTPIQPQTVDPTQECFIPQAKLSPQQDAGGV
Assay: FACS, hybridoma subclone supernatant on NCI-H929 cells

| Binder | MFI [MFI] |
| --- | --- |
| B1 | 12800 |
| B2 | 59300 |
| B3 | 11900 |
| B4 | 13200 |
| B5 | 15700 |
